Measured values published in patent US20060127393A1 (Amgen, published 2006).

Legend:
[1] = molecular target: T1, CNBr2 fragment of human Dkk-1 (human, UniProt O94907 32-122; O94907 127-178); assay: BiaCore
T1 construct: Two peptides held together by disulfide bonds; represents disulfide domain 1
T1 sequence 1: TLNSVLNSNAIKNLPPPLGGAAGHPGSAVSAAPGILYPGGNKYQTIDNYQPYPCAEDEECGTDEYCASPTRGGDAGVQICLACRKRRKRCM
T1 sequence 2: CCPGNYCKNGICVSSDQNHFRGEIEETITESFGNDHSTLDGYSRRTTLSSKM
Experimental: To characterize this conformational epitope, a strategy was applied that involved fragmenting human Dkk-1 with cyanogen bromide (CNBr) and several different proteases, then testing the resulting fragments to see whether they could still bind to the 11H10 antibody. The resulting data permitted the location of the epitope to be determined. In brief, the peptide digests were incubated with or without the antibody, passed through a 10 K cut-off membrane to trap any peptides that had become bound to the antibody (˜150,000 Da), then subjected to HPLC peptide mapping. […] The individual HPLC peaks were collected and the peptides identified and mapped by N-terminal sequencing. To determine if the peptides could bind 11H10, they were subjected to real time biospecific interaction assays with a BiaCore work station, using Protein A-trapped anti-Dkk-1 antibody as a biosensor for binding.
CNBr cleavage of hDkk-1 generated two large fragments, CNBr1 and CNBr2. These represented, respectively, disulfide domain 2 and disulfide domain 1. […] CNBr2 similarly consisted of two peptides (amino acids 32-122 of SEQ ID NO:2 and amino acids 127-178 of SEQ ID NO:2), also held together by disulfide bonds. […] Thus, it was concluded that 11H10 binds to an epitope located in disulfide domain 2 of Dkk-1.

[2] = molecular target: T2, human Dkk-1 (human, UniProt O94907 32-266, carbohydrate moieties attached to Asn256); assay: cell-based or functional assay
T2 sequence: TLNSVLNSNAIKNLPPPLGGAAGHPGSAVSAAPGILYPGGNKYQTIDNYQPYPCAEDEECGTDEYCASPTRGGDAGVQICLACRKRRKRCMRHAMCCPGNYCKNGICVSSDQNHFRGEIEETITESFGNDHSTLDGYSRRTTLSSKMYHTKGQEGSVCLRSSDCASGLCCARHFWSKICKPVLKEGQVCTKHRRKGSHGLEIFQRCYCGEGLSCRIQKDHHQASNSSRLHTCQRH

[3] = molecular target: T3, murine Dkk-1 (mouse, UniProt O54908 32-272); assay: cell-based or functional assay
T3 sequence: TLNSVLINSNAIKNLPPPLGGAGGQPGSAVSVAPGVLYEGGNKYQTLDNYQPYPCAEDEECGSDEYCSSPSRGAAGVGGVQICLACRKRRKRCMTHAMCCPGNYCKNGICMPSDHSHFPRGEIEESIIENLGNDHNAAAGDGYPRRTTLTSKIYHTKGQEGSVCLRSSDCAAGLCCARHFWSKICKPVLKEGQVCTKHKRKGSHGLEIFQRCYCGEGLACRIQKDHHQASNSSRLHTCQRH

[4] = molecular target: T2, human Dkk-1; assay: cell-based or functional assay; remark: listed apart in the source
[5] = molecular target: T3, murine Dkk-1; assay: cell-based or functional assay; remark: listed apart in the source
[6] = molecular target: rat Dkk-1 (rat); assay: cell-based or functional assay
[7] = molecular target: T2, human Dkk-1; assay: KinExA 3000 equilibrium binding in solution, Dkk-1-coated beads
Text: (§1) It was apparent from the BiaCore results that 11H10 had the higher affinity for Dkk-1, and that its affinity for target exceeded the sensitivity limits of the BiaCore assay. Accordingly, the affinity of binding of 11H10 to Dkk-1 was further assessed by an equilibrium binding analysis using the more sensitive KinExA® 3000 (Sapidyne Instruments Inc., Boise, Id.). For these measurements, Reacti-Gel 6× beads (Pierce, Rockford, Ill.) were pre-coated with either mouse, rat or human Dkk-1 and blocked with BSA. One hundred pM, 300 pM, or 1000 pM of the 11H10 antibody was mixed with various concentrations of human, mouse or rat Dkk-1, ranging in concentration from 1 pM to 50 nM, and equilibrated at room temperature for 8 hours. The mixtures were then passed over the Dkk-1-coated beads. The amount of bead-bound anti-Dkk-1 antibody was quantified using goat anti-rat-IgG antibody labeled with a fluorescent tag (Cy5; Jackson Immuno Research, West Grove, Pa.). The amount of fluorescent signal measured was proportional to the concentration of free anti-Dkk-1 antibody in each reaction mixture at equilibrium. The dissociation equilibrium constant (Kd) was obtained from nonlinear regression of the competition curves using a dual-curve one-site homogeneous binding model using the KinExA software.

[8] = molecular target: T3, murine Dkk-1; assay: as above
Text: as §1

[9] = molecular target: rat Dkk-1 (rat); assay: as above
Text: as §1

[10] = molecular target: T2, human Dkk-1; assay: SPR, BiaCore 2000, Dkk-1 immobilized on CM5 chip, antibody injected
Experimental: (§2) Kinetic analyses were performed to study the binding of the 11H10 and 1F11 antibodies to Dkk-1 using BiaCore 2000 (BIACORE, Uppsala, Sweden). Rat Dkk-1 (260 μg/ml), murine Dkk-1 (690 μg/ml) and human Dkk-1(900 μg/ml) were immobilized on a CM5 chip surface, and various concentrations (0.78 nM to about 100 nM) of the antibodies were injected over the immobilized Dkk-1 surfaces. The binding sensorgrams were analyzed using BIAevaluation 3.2.

[11] = molecular target: T3, murine Dkk-1; assay: as above
Experimental: as §2

[12] = molecular target: rat Dkk-1 (rat); assay: as above
Experimental: as §2

binding result [1]: no binding
EC50 (nM), restoring ALP activity in ST2 cells given Wnt3a and Dkk-1 [2]: 3.5 nM
EC50 (nM), restoring ALP activity in ST2 cells given Wnt3a and Dkk-1 [3]: 6.1 nM
EC50 (nM), TCF-lef luciferase assay [4]: 4 nM
EC50 (nM), TCF-lef luciferase assay [5]: 11.5 nM
EC50 (nM), TCF-lef luciferase assay [6]: 5 nM
Kd [7]: 0.13 nM
Kd [8]: 0.165 nM
Kd [9]: 0.54 nM
Kd [10]: < 0.1 nM
koff [10]: < 5e-05 s⁻¹
kon [10]: 52000 M⁻¹ s⁻¹
Kd [11]: < 0.1 nM
koff [11]: < 5e-05 s⁻¹
kon [11]: 54000 M⁻¹ s⁻¹
Kd [12]: 0.29 nM
koff [12]: 1.54e-05 s⁻¹
kon [12]: 54000 M⁻¹ s⁻¹
B1: 11H10 monoclonal antibody (rat) (antibody, IgG1, V domains shown)
VH: EVQLVESGGGLVQPANSLKLSCAASGFTFSDYAMAWVRQSPKKGLEWVATIIYDGSSTYYRDSVKGRFTISRDNAKSTLYLQMDSLRSEDTATYYCATGLGIATDYFDYWGQGVLVTVSS
VL: DIRMTQSPASLSASLGETVNIECLASEDIYSDLAWYQQKPGKSPQLLIYNANSLQNGVPSRFSGSGSGTQYSLKINSLQSEDVATYFCQQYNNYPPTFGGGTKLELKR
notes: Rat hybridoma antibody of the IgG1 isotype; also called rat 11H10; L1H1
